For data set [1], the target named is ModTad2 (Tad2 homolog encoded by a prophage of Myroides odoratus) (prophage of Myroides odoratus). As to the kind of experiment: crystal structure.
The data set “crystal structure” concerns the molecule itself. As to the kind of experiment: crystal structure.

Usually stoichiometry N stands for the number of molecules, sites or subunits per partner or assembly.

“ModTad2 (Tad2 homolog encoded by a prophage of Myroides odoratus) (natural protein)” displayed a stoichiometry N in data set [1] of 4.

B1: Macro domain of ThsA(amylo) (residues 83-297), type II Thoeris of Bacillus amyloliquefaciens Y2 (domain or fragment, UniProt I2C645 83-297, looked up)
chain: NNITLNLNGSEVEIKKGDIFEVPRNNYKVIAFNEYFDTQVDDVIIARETLNGQYIKRYYSHQDITELDQKIKDDVKLKIEEKNVERPFGGKTTRYSLGSVFKDMDFFLVAFSKFDRENRAQLKLNEYASCMLNVWNEINTLHASKEVFIPLLGSGITRHVDSDVGVNELLHIMLWTFQISKVKFREPAKVTILLYKNDHKKINFYKLKEFEKNGL
For B1, the “stoichiometry N” value in “crystal structure” came out at 2.

For the origin of these results see publication doi:10.1101/2024.01.03.573942 (bioRxiv, 2024).
